Measured values reported in PMC8298264, “Function of cofactor Akirin2 in the regulation of gene expression in model human neutrophil-like HL60 cells” (Bioscience Reports, 2021).

Test system: human HL60 cells
Test: SWATH-MS proteomics, differential protein representation, akirin2 KO vs WT HL60 cells
Format: cell-based
Conditions: akirin2 KO vs WT HL60 cells
Procedure, shortened: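 First, proteins from wild-type and knockout cells are digested with trypsin by FASP. Next, pooled IDA runs generate a reference ion library. Then six samples of 5 µg each are acquired by data-independent SWATH, and protein areas are normalized to the summed area of all detected proteins.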

[1] = SWATH-MS, under-represented in KO
[2] = sheet "Under-represented in KO"

B1: sp¦Q8TCS8¦PNPT1_HUMAN (protein, UniProt Q8TCS8 46-783, looked up)
Polyribonucleotide …: AVAVDLGNRKLEISSGKLARFADGSAVVQSGDTAVMVTAVSKTKPSPSQFMPLVVDYRQKAAAAGRIPTNYLRREIGTSDKEILTSRIIDRSIRPLFPAGYFYDTQVLCNLLAVDGVNEPDVLAINGASVALSLSDIPWNGPVGAVRIGIIDGEYVVNPTRKEMSSSTLNLVVAGAPKSQIVMLEASAENILQQDFCHAIKVGVKYTQQIIQGIQQLVKETGVTKRTPQKLFTPSPEIVKYTHKLAMERLYAVFTDYEHDKVSRDEAVNKIRLDTEEQLKEKFPEADPYEIIESFNVVAKEVFRSIVLNEYKRCDGRDLTSLRNVSCEVDMFKTLHGSALFQRGQTQVLCTVTFDSLESGIKSDQVITAINGIKDKNFMLHYEFPPYATNEIGKVTGLNRRELGHGALAEKALYPVIPRDFPFTIRVTSEVLESNGSSSMASACGGSLALMDSGVPISSAVAGVAIGLVTKTDPEKGEIEDYRLLTDILGIEDYNGDMDFKIAGTNKGITALQADIKLPGIPIKIVMEAIQQASVAKKEILQIMNKTISKPRASRKENGPVVETVQVPLSKRAKFVGPGGYNLKKLQAETGVTISQVDEETFSVFAPTPSAMHEARDFITEICKDDQEQQLEFGAVYTATITEIRDTGVMVKLYPNMTAVLLHNTQLDQRKIKHPTALGLEVGQEIQVKYFGRDPADGRMRLSRKVLQSPATTVVRTLNDRSSIVMGEPISQSSSNSQ
Fold Change [1]: 0.6886
Log (Fold Change) [1]: -0.162

B2: sp¦Q9H0A0¦NAT10_HUMAN (protein, UniProt Q9H0A0 1-1025, looked up)
RNA cytidine acetyltransferase: MHRKKVDNRIRILIENGVAERQRSLFVVVGDRGKDQVVILHHMLSKATVKARPSVLWCYKKELGFSSHRKKRMRQLQKKIKNGTLNIKQDDPFELFIAATNIRYCYYNETHKILGNTFGMCVLQDFEALTPNLLARTVETVEGGGLVVILLRTMNSLKQLYTVTMDVHSRYRTEAHQDVVGRFNERFILSLASCKKCLVIDDQLNILPISSHVATMEALPPQTPDESLGPSDLELRELKESLQDTQPVGVLVDCCKTLDQAKAVLKFIEGISEKTLRSTVALTAARGRGKSAALGLAIAGAVAFGYSNIFVTSPSPDNLHTLFEFVFKGFDALQYQEHLDYEIIQSLNPEFNKAVIRVNVFREHRQTIQYIHPADAVKLGQAELVVIDEAAAIPLPLVKSLLGPYLVFMASTINGYEGTGRSLSLKLIQQLRQQSAQSQVSTTAENKTTTTARLASARTLYEVSLQESIRYAPGDAVEKWLNDLLCLDCLNITRIVSGCPLPEACELYYVNRDTLFCYHKASEVFLQRLMALYVASHYKNSPNDLQMLSDAPAHHLFCLLPPVPPTQNALPEVLAVIQVCLEGEISRQSILNSLSRGKKASGDLIPWTVSEQFQDPDFGGLSGGRVVRIAVHPDYQGMGYGSRALQLLQMYYEGRFPCLEEKVLETPQEIHTVSSEAVSLLEEVITPRKDLPPLLLKLNERPAERLDYLGVSYGLTPRLLKFWKRAGFVPVYLRQTPNDLTGEHSCIMLKTLTDEDEADQGGWLAAFWKDFRRRFLALLSYQFSTFSPSLALNIIQNRNMGKPAQPALSREELEALFLPYDLKRLEMYSRNMVDYHLIMDMIPAISRIYFLNQLGDLALSAAQSALLLGIGLQHKSVDQLEKEIELPSGQLMGLFNRIIRKVVKLFNEVQEKAIEEQMVAAKDVVMEPTMKTLSDDLDEAAKEFQEKHKKEVGKLKSMDLSEYIIRGDDEEWNEVLNKAGPNASIISLKSDKKRKLEAKQEPKQSKKLKNRETKNKKDMKLKRKK
Fold Change [1]: 0.7033
Log (Fold Change) [1]: -0.1528

B3: sp¦Q99496¦RING2_HUMAN (protein, UniProt Q99496 2-336, looked up)
E3 ubiquitin-protein ligase …: SQAVQTNGTQPLSKTWELSLYELQRTPQEAITDGLEIVVSPRSLHSELMCPICLDMLKNTMTTKECLHRFCADCIITALRSGNKECPTCRKKLVSKRSLRPDPNFDALISKIYPSRDEYEAHQERVLARINKHNNQQALSHSIEEGLKIQAMNRLQRGKKQQIENGSGAEDNGDSSHCSNASTHSNQEAGPSNKRTKTSDDSGLELDNNNAAMAIDPVMDGASEIELVFRPHPTLMEKDDSAQTRYIKTSGNATVDHLSKYLAVRLALEELRSKGESNQMNLDTASEKQYTIYIATASGQFTVLNGSFSLELVSEKYWKVNKPMELYYAPTKEHK
Fold Change [1]: 0.6992
Log (Fold Change) [1]: -0.1554

B4: sp¦P54577¦SYYC_HUMAN (protein, UniProt P54577 1-528, looked up)
Tyrosine--tRNA ligase, …: MGDAPSPEEKLHLITRNLQEVLGEEKLKEILKERELKIYWGTATTGKPHVAYFVPMSKIADFLKAGCEVTILFADLHAYLDNMKAPWELLELRVSYYENVIKAMLESIGVPLEKLKFIKGTDYQLSKEYTLDVYRLSSVVTQHDSKKAGAEVVKQVEHPLLSGLLYPGLQALDEEYLKVDAQFGGIDQRKIFTFAEKYLPALGYSKRVHLMNPMVPGLTGSKMSSSEEESKIDLLDRKEDVKKKLKKAFCEPGNVENNGVLSFIKHVLFPLKSEFVILRDEKWGGNKTYTAYVDLEKDFAAEVVHPGDLKNSVEVALNKLLDPIREKFNTPALKKLASAAYPDPSKQKPMAKGPAKNSEPEEVIPSRLDIRVGKIITVEKHPDADSLYVEKIDVGEAEPRTVVSGLVQFVPKEELQDRLVVVLCNLKPQKMRGVESQGMLLCASIEGINRQVEPLDPPAGSAPGEHVFVKGYEKGQPDEELKPKKKVFEKLQADFKISEECIAQWKQTNFMTKLGSISCKSLKGGNIS
Fold Change [1]: 0.6907
Log (Fold Change) [1]: -0.1607

B5: sp¦Q9Y5Y2¦NUBP2_HUMAN (protein, UniProt Q9Y5Y2 1-271, looked up)
Cytosolic Fe-S cluster …: MEAAAEPGNLAGVRHIILVLSGKGGVGKSTISTELALALRHAGKKVGILDVDLCGPSIPRMLGAQGRAVHQCDRGWAPVFLDREQSISLMSVGFLLEKPDEAVVWRGPKKNALIKQFVSDVAWGELDYLVVDTPPGTSDEHMATIEALRPYQPLGALVVTTPQAVSVGDVRRELTFCRKTGLRVMGIVENMSGFTCPHCTECTSVFSRGGGEELAQLAGVPFLGSVPLDPALMRTLEEGHDFIQEFPGSPAFAALTSIAQKILDATPACLP
Fold Change [2]: 0.6881
Log (Fold Change) [2]: -0.1623

B6: sp¦P42167¦LAP2B_HUMAN (protein, UniProt P42167 1-454, looked up)
Lamina-associated polypeptide …: MPEFLEDPSVLTKDKLKSELVANNVTLPAGEQRKDVYVQLYLQHLTARNRPPLPAGTNSKGPPDFSSDEEREPTPVLGSGAAAAGRSRAAVGRKATKKTDKPRQEDKDDLDVTELTNEDLLDQLVKYGVNPGPIVGTTRKLYEKKLLKLREQGTESRSSTPLPTISSSAENTRQNGSNDSDRYSDNEEDSKIELKLEKREPLKGRAKTPVTLKQRRVEHNQSYSQAGITETEWTSGSSKGGPLQALTRESTRGSRRTPRKRVETSEHFRIDGPVISESTPIAETIMASSNESLVVNRVTGNFKHASPILPITEFSDIPRRAPKKPLTRAEVGEKTEERRVERDILKEMFPYEASTPTGISASCRRPIKGAAGRPLELSDFRMEESFSSKYVPKYVPLADVKSEKTKKGRSIPVWIKILLFVVVAVFLFLVYQAMETNQVNPFSNFLHVDPRKSN
Fold Change [1]: 0.7013
Log (Fold Change) [1]: -0.1541

B7: sp¦Q9HDC9¦APMAP_HUMAN (protein, UniProt Q9HDC9 2-416, looked up)
Adipocyte plasma …: SEADGLRQRRPLRPQVVTDDDGQAPEAKDGSSFSGRVFRVTFLMLAVSLTVPLLGAMMLLESPIDPQPLSFKEPPLLLGVLHPNTKLRQAERLFENQLVGPESIAHIGDVMFTGTADGRVVKLENGEIETIARFGSGPCKTRDDEPVCGRPLGIRAGPNGTLFVADAYKGLFEVNPWKREVKLLLSSETPIEGKNMSFVNDLTVTQDGRKIYFTDSSSKWQRRDYLLLVMEGTDDGRLLEYDTVTREVKVLLDQLRFPNGVQLSPAEDFVLVAETTMARIRRVYVSGLMKGGADLFVENMPGFPDNIRPSSSGGYWVGMSTIRPNPGFSMLDFLSERPWIKRMIFKLFSQETVMKFVPRYSLVLELSDSGAFRRSLHDPDGLVATYISEVHEHDGHLYLGSFRSPFLCRLSLQAV
Fold Change [1]: 0.6899
Log (Fold Change) [1]: -0.1612

B8: sp¦P61009¦SPCS3_HUMAN (protein, UniProt P61009 1-180, looked up)
Signal peptidase complex …: MNTVLSRANSLFAFSLSVMAALTFGCFITTAFKDRSVPVRLHVSRIMLKNVEDFTGPRERSDLGFITFDITADLENIFDWNVKQLFLYLSAEYSTKNNALNQVVLWDKIVLRGDNPKLLLKDMKTKYFFFDDGNGLKGNRNVTLTLSWNVVPNAGILPLVTGSGHVSVPFPDTYEITKSY
Fold Change [1]: 0.6925
Log (Fold Change) [1]: -0.1596

B9: sp¦O96008¦TOM40_HUMAN (protein, UniProt O96008 1-361, looked up)
Mitochondrial import receptor …: MGNVLAASSPPAGPPPPPAPALVGLPPPPPSPPGFTLPPLGGSLGAGTSTSRSSERTPGAATASASGAAEDGACGCLPNPGTFEECHRKCKELFPIQMEGVKLTVNKGLSNHFQVNHTVALSTIGESNYHFGVTYVGTKQLSPTEAFPVLVGDMDNSGSLNAQVIHQLGPGLRSKMAIQTQQSKFVNWQVDGEYRGSDFTAAVTLGNPDVLVGSGILVAHYLQSITPCLALGGELVYHRRPGEEGTVMSLAGKYTLNNWLATVTLGQAGMHATYYHKASDQLQVGVEFEASTRMQDTSVSFGYQLDLPKANLLFKGSVDSNWIVGATLEKKLPPLPLTLALGAFLNHRKNKFQCGFGLTIG
Fold Change [1]: 0.6912
Log (Fold Change) [1]: -0.1604

B10: sp¦Q96HE7¦ERO1A_HUMAN (protein, UniProt Q96HE7 24-468, looked up)
ERO1-like protein alpha: EEQPPETAAQRCFCQVSGYLDDCTCDVETIDRFNNYRLFPRLQKLLESDYFRYYKVNLKRPCPFWNDISQCGRRDCAVKPCQSDEVPDGIKSASYKYSEEANNLIEECEQAERLGAVDESLSEETQKAVLQWTKHDDSSDNFCEADDIQSPEAEYVDLLLNPERYTGYKGPDAWKIWNVIYEENCFKPQTIKRPLNPLASGQGTSEENTFYSWLEGLCVEKRAFYRLISGLHASINVHLSARYLLQETWLEKKWGHNITEFQQRFDGILTEGEGPRRLKNLYFLYLIELRALSKVLPFFERPDFQLFTGNKIQDEENKMLLLEILHEIKSFPLHFDENSFFAGDKKEAHKLKEDFRLHFRNISRIMDCVGCFKCRLWGKLQTQGLGTALKILFSEKLIANMPESGPSYEFHLTRQEIVSLFNAFGRISTSVKELENFRNLLQNIH
Fold Change [1]: 0.7045
Log (Fold Change) [1]: -0.1521

B11: sp¦O75607¦NPM3_HUMAN (protein, UniProt O75607 2-178, looked up)
Nucleoplasmin-3: AAGTAAALAFLSQESRTRAGGVGGLRVPAPVTMDSFFFGCELSGHTRSFTFKVEEEDDAEHVLALTMLCLTEGAKDECNVVEVVARNHDHQEIAVPVANLKLSCQPMLSLDDFQLQPPVTFRLKSGSGPVRITGRHQIVTMSNDVSEEESEEEEEDSDEEEVELCPILPAKKQGGRP
Fold Change [1]: 0.6936
Log (Fold Change) [1]: -0.1589
